Measurements taken from patent US20250084155A1 (University of Texas, published 2025).

Columns and labels:
[1] = molecular target: T1, ATP-HSP70 (ATP-enriched HSP70, expressed in SF9 cells) (human, UniProt P0DMV8 1-641, limits assumed); assay: BLI, 77A on sensor, ATP-HSP70 at 300 (µM)
Experimental: (§1) HSP70 was expressed in SF9 cells. Affinity chromatography using resins selective for ADP or ATP-binding proteins were used to enrich bulk preparations of the correspondingly bound HSP70 recombinant protein. Protein concentrations, determined after elution, were measured so that equal concentrations could be used in subsequent assays. For BLI-based assays, antibodies and reagents were diluted out onto microwell plates and loaded into the instrument. Antibodies being tested were immobilized onto dip-and-read sensors and then observed for kinetics during binding to ATP or ADP-enriched HSP70. For ELISA, the relevant enriched HSP70 proteins were directly coated onto ELISA plate wells overnight. Test antibodies were then serially diluted across the plate wells, and detected using an appropriate secondary antibody-HRP conjugate. The plates were developed using a TMB substrate, and the O.D. stabilized using an acid stop solution.

[2] = molecular target: T2, HSP70 (human HSP70; the antigen of the binning, humanization and variant binding assays) (human, UniProt P0DMV8 1-641, limits assumed); assay: BLI, antibody on sensor
T2 construct: also called hu HSP70
T2 sequence (P0DMV8 whole entry, change not shown): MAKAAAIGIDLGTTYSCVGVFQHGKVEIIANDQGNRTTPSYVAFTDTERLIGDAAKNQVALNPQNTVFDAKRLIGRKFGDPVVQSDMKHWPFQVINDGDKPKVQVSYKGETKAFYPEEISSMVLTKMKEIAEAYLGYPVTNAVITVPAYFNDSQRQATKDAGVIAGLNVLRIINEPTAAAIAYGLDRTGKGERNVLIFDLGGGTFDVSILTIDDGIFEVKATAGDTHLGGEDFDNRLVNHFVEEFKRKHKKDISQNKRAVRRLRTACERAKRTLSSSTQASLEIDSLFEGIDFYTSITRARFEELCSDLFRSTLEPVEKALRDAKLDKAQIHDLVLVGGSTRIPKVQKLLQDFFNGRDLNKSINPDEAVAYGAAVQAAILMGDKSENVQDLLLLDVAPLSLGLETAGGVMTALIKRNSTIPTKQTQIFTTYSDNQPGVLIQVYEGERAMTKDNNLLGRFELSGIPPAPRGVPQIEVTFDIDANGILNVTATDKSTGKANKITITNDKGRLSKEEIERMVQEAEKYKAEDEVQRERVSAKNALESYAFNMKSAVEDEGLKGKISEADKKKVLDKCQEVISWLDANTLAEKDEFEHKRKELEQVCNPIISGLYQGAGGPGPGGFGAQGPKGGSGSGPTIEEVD
Summary of the method: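 Antibodies immobilized on biolayer interferometry sensors, baseline taken, then dipped into HSP70 antigen solution or buffer. Binding followed as interference-pattern shift; kinetic constants derived by modeling from the signals and reagent concentrations.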

[3] = molecular target: T3, ADP-HSP70 (ADP-enriched HSP70, expressed in SF9 cells) (human, UniProt P0DMV8 1-641, limits assumed); assay: BLI, 77A on sensor, ADP-HSP70 at 150 (µM)
T3 sequence (P0DMV8 whole entry): as the sequence (P0DMV8 whole entry, change not shown) above
Experimental: as §1

[4] = molecular target: human HSP70 made in E. coli (human, UniProt P0DMV8 1-641, limits assumed); assay: Octet (BLI)
Sequence of human HSP70 made in E. coli (P0DMV8 whole entry): as the sequence (P0DMV8 whole entry, change not shown) above

[5] = molecular target: murine HSP70 (murine, UniProt P17879 1-642); assay: Octet (BLI)
Sequence of murine HSP70 (P17879 other isoform, or with tags, fused parts or gaps): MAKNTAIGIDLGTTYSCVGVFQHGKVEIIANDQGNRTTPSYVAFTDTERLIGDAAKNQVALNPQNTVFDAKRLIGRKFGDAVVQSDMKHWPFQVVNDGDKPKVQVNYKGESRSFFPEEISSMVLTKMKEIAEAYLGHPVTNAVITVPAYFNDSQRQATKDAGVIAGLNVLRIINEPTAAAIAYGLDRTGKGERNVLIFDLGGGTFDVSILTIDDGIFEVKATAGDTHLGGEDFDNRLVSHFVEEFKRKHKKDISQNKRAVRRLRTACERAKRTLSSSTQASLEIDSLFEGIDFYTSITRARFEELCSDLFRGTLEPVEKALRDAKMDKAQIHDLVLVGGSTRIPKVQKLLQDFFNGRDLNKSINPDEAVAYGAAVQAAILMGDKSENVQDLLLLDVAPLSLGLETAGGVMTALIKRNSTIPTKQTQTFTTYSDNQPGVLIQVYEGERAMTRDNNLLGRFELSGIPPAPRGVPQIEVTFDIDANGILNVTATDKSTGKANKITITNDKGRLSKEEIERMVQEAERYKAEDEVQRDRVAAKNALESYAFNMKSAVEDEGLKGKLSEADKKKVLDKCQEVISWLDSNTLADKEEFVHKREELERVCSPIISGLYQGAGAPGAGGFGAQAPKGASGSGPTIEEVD

[6] = molecular target: T4, human HSP70 made in Sf9 insect cells (human, UniProt P0DMV8 1-641, limits assumed); assay: Octet (BLI)
T4 construct: also called HSP70 made in eukaryotic insect Sf9 cells
T4 sequence (P0DMV8 whole entry): as the sequence (P0DMV8 whole entry, change not shown) above

[7] = molecular target: T3, ADP-HSP70 (ADP-enriched HSP70, …); assay: BLI, 77A on sensor
Experimental: as §1

[8] = molecular target: T1, ATP-HSP70 (ATP-enriched HSP70, …); assay: ELISA, HSP70 coated
Experimental: as §1
(§2) ELISA data, shown in FIG. 18, depicted the same trend, in which 77A had higher maximal absorbance with the ADP-enriched HSP70 than the ATP-enriched HSP70.

[9] = molecular target: T3, ADP-HSP70 (ADP-enriched HSP70, …); assay: ELISA, HSP70 coated
Experimental: as §1, §2

[10] = molecular target: T3, ADP-HSP70 (ADP-enriched HSP70, …); assay: BLI, 77A on sensor, ADP-HSP70 at 75 (µM)
Experimental: as §1

[11] = molecular target: T3, ADP-HSP70 (ADP-enriched HSP70, …); assay: BLI, 77A on sensor, ADP-HSP70 at 300 (µM)
Experimental: as §1

[12] = molecular target: T1, ATP-HSP70 (ATP-enriched HSP70, …); assay: BLI, 77A on sensor, ATP-HSP70 at 75 (µM)
Experimental: as §1

[13] = molecular target: T3, ADP-HSP70 (ADP-enriched HSP70, …); assay: BLI, 77A on sensor, ADP-HSP70 at 37.5 (µM)
Experimental: as §1

[14] = molecular target: T5, 504 (N-terminal GFP fusion; GFP is not in the letters); assay: immunoprecipitation with 77A from extracts of HSP70 KO 293T cells, Western blot with anti-GFP [panel B]
T5 construct: not shown: N-terminal GFP fusion partner and any linker

[15] = molecular target: T1, ATP-HSP70 (ATP-enriched HSP70, …); assay: BLI, 77A on sensor, ATP-HSP70 at 150 (µM)
Experimental: as §1

T1 sequence (P0DMV8 whole entry): as the sequence (P0DMV8 whole entry, change not shown) above

B1: 77A antibody (clone 77A, murine anti-HSP70 monoclonal antibody) (antibody, V domains shown)
VH: QIQLVQSGPELKKPGETVKISCKASGYTFTNYGMNWVKQAPGKGLKWMGWINTYTGEPTYADDFKGRFAFSLETSATTAYLQINNLKNEDTATYFCARYDHAMDYWGQGTSVTVSS
VL: DIVMSQSPSSLAVSAGEKVTMSCKSSQSLLNSGTRKNYLAWYQQKPGQSPKLLIYWTSTRESGVPDRFTGSGSGTDFTLTINSVQAEDLAVYYCKQSYTLYTFGGGTKLEIK
notes: murine hybridoma antibody; its isotype control is IgG2B; also called mAb 77A
In the case of B1, the Kd [1] is reported as 20.2 nM, the koff [1] is reported as 0.00038 s⁻¹ and the kon [1] is reported as 18800 M⁻¹ s⁻¹. For the same binder, the Kd [2] was 1.2 nM, the koff [2] was 8.08e-05 s⁻¹ and the kon [2] was 67400 M⁻¹ s⁻¹. The Kd [3] was 5.42 nM, the koff [3] was 0.000292 s⁻¹ and the kon [3] was 53800 M⁻¹ s⁻¹. For the same binder, the Kd [4] was 0.85 nM, the Kd [5] was 988 nM and the Kd [6] was under 0.001 nM. For the same binder, the “fold greater affinity (KD) than ATP-enriched HSP70” value [7] was at least 4 fold, the EC50 [8] was 1.77 nM and the EC50 [9] was 0.737 nM. The Kd [10] was 5.42 nM, the koff [10] was 0.000292 s⁻¹ and the kon [10] was 53800 M⁻¹ s⁻¹. It also gave a Kd [11] of 5.42 nM, a koff [11] of 0.000292 s⁻¹ and a kon [11] of 53800 M⁻¹ s⁻¹. It also gave a Kd [12] of 20.2 nM, a koff [12] of 0.00038 s⁻¹ and a kon [12] of 18800 M⁻¹ s⁻¹. The Kd [13] was 5.42 nM, the koff [13] was 0.000292 s⁻¹ and the kon [13] was 53800 M⁻¹ s⁻¹. The binding result [14] was “no binding”, the Kd [15] was 20.2 nM and the koff [15] was 0.00038 s⁻¹. The kon [15] was 18800 M⁻¹ s⁻¹.
